Among the data in patent US20180066058A1 (published 2018) are IC50 and Kd values, retold here.

Experiment [1] has as its target T1, human ICOS-mFc (Chimerigen) (human, UniProt Q9Y6W8 21-140).
T1 construct: also called human ICOS receptor; human ICOS Receptor; not shown: mouse Fc of the bought construct
T1 sequence: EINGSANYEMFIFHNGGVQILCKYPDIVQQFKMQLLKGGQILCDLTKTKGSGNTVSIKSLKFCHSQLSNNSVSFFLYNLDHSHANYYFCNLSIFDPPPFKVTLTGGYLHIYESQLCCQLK
In words: HTRF neutralisation of Alexa 647 human B7-H2 binding to human ICOS-mFc; human IgG4.PE; mean, n = 3. As to the method: (§1) 5 μl of ICOS receptor (human ICOS-mFc, 20 nM, 5 nM final or mouse ICOS-mFc 4 nM, 1 nM final (Chimerigen)) was added to required wells. Plate was incubated for 1 hr at room temperature (RT).
(§2) Finally, 5 μl of anti-mouse IgG donor mAb (Southern Biotech) labelled with europium cryptate (Cis Bio), 40 nM, 10 nM final was added to each well and the assay was left in the dark at RT to incubate for a further 2 hours. After incubation, assay was read on Envision plate reader (Perkin Elmer) using a standard HTRF protocol. […] Titration curves and IC50 values [M] were plotted using Graphpad (Prism). IC50 values were calculated by first transforming the data using equation X=Log(X). The transformed data was then fitted using nonlinear regression, using fitting algorithm, log (inhibitor) vs. response—variable slope (four parameters).

Experiment [2] concerns the target T2, mouse ICOS-mFc (Chimerigen) (mouse, UniProt Q9WVS0 21-141, limits assumed).
T2 construct: also called mouse ICOS receptor; mouse ICOS Receptor; not shown: mouse Fc of the bought construct
T2 sequence: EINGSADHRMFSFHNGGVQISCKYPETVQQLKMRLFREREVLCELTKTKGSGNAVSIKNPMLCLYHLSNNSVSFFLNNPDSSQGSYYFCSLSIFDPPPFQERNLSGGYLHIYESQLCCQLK
In words: HTRF neutralisation of Alexa 647 mouse B7-H2 binding to mouse ICOS-mFc; human IgG4.PE; mean, n = 3. As to the method:
as §1, §2
In general terms: In TR-FRET formats the signal depends on donor and acceptor labels being close together.

The target in experiment [3] is T3, Human ICOS extracellular domain fused to human Fc (human, UniProt Q9Y6W8 21-140).
T3 construct: Dimeric protein made in house from NCBI NP_036224.1; also called hICOS; hICOS Fc; not shown: human Fc region
T3 sequence: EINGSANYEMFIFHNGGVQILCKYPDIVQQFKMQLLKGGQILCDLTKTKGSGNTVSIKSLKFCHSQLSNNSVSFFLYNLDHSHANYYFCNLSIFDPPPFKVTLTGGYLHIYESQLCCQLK
In words: SPR (ProteOn XPR36), Fc-tagged ICOS captured on anti-human IgG, Fab analyte, 25 C. The protocol: Fab affinities of the ICOS leads were generated by SPR using the ProteOn XPR3 6 (BioRad). An anti-human IgG capture surface was created on a GLC biosensor chip by primary amine coupling, immobilising three anti-human IgG antibodies (Jackson Labs 109-005-008, 109-006-008 and 309-006-008). […] Binding sensorgrams were double referenced using a buffer injection (i.e. 0 nM), and the data was fitted to the 1:1 model inherent to the ProteOn XPR36 analysis software. The assay was run at 25° C. and using HBS-EP as running buffer.

For experiment [4], the target named is T3, Human ICOS extracellular domain fused …. Put plainly: SPR (ProteOn XPR36), human ICOS ECD-Fc captured, Fab analyte, pH 5.5, 37 C; poor fit to 1:1 model. The protocol: (§3) In addition, a comparison was performed of antibody:antigen binding affinity at different pH values. As before, the dimeric human ICOS protein, presented as the extracellular domain of ICOS fused to a human Fc region, was captured on the anti-human Fc capture surface created using the 3 antibody cocktail, immobilised on the GLC biosensor chip by primary amine coupling. SPR analysis of recombinantly expressed anti-ICOS Fabs was carried out on the ProteOn XPR36 Array system (Biorad). The Fab fragments were used as analyte to generate binding sensorgrams, which were double referenced with a buffer injection (i.e., 0 nM). The subsequent referenced sensorgrams were fitted to the 1:1 model inherent to the ProteOn analysis software. […] Data were fitted to the 1:1 model.

Experiment [5] shares this target. Put plainly: SPR (ProteOn XPR36), human ICOS ECD-Fc captured, Fab analyte, pH 7.4, 37 C; poor fit to 1:1 model. The protocol:
as §3

The target in experiment [6] is T1, human ICOS-mFc (Chimerigen). In words: HTRF neutralisation of Alexa 647 human B7-H2 binding to human ICOS-mFc; human IgG4.PE table; n = 1. The protocol: as §1, §2

One may read the IC50 as the concentration that gives 50% inhibition. The Kd is the free concentration of one partner at which half of the binding sites on the other are occupied at equilibrium, for simple one-to-one binding.

B1: STIM004 human IgG4.PE (antibody, V domains shown)
VH: EVQLVESGGGVVRPGGSLRLSCAASGLTFDDYGMSWVRQVPGKGLEWVSGINWNGDNTDYADSVKGRFTISRDNAKNSLYLQMNSLRAEDTALYYCARDYYGSGSYYNVPFDYWGQGTLVTVSS
VL: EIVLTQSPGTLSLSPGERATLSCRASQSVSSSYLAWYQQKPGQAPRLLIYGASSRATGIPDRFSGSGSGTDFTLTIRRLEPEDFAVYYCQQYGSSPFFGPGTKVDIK
notes: Human IgG4.PE (null-effector) format
B1: the IC50 in experiment [1] was 161 nM; in experiment [2] it was 30 nM.

B2: STIM002 Fab (Fab, V domains shown)
VH: QVQLVQSGGEVKKPGASVKVSCKASGYTFTSYGFSWVRQAPGQGLEWMGWISAYNGNTNYAQKLQGRVTMTTDTSTSTAYMELRSLRSDDTAVYYCARSTYFYGSGTLYGMDVWGQGTTVTVSS
VL: DIVMTQSPLSLPVTPGEPASISCRSSQSLLHSDGYNYLDWYLQKPGQSPQLLIYLGSTRASGFPDRFSGSGSGTDFTLKISRVEAEDVGVYYCMQALQTPLSFGQGTKLEIK
notes: Recombinantly expressed purified Fab
B2: the results for the Kd in experiment [3], in experiment [4] and in experiment [5] were 1070 nM, 4.17 nM and 223 nM, respectively.

B3: STIM006 human IgG4.PE (antibody, V domains shown)
VH: QVQLVESGGGLVKPGGSLRLSCAASGFTFSDYFMSWIRQAPGKGLEWISYISSSGSTIYYADSVRGRFTISRDNAKYSLYLQMNSLRSEDTAVYYCARDHYDGSGIYPLYYYYGLDVWGQGTTVTVSS
VL: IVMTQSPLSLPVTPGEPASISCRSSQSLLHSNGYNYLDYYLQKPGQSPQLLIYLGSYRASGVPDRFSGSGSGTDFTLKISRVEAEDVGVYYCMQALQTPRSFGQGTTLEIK
As to B3, the IC50 in experiment [6] stood at 0.8 nM.
